Laboratory results taken from IntAct's records for PubMed 18818696.

B1: Protein SGT1 homolog (Homo sapiens), Q9Y2Z0-2 (parent)
chain: MAAAAAGTATSQRFFQSFSDALIDEDPQAALEELTKALEQKPDDAQYYCQRAYCHILLGNYCVAVADAKKSLELNPNNSTAMLRKGICEYHEKNYAAALETFTEGQKLDSADANFSVWIKRCQEAQNGSESEVWTHQSKIKYDWYQTESQVVITLMIKNVQKNDVNVEFSEKELSALVKLPSGEDYNLKLELLHPIIPEQSTFKVLSTKIEIKLKKPEAVRWEKLEGQGDVPTPKQFVADVKNLYPSSSPYTRNWDKLVGEIKEEEKNEKLEGDAALNRLFQQIYSDGSDEVKRAMNKSFMESGGTVLSTNWSDVGKRKVEINPPDDMEWKKY

Variants of: B1
Settings: with skp1_human SKP1, P63208
Sequence of skp1_human SKP1, P63208 (P63208 whole entry): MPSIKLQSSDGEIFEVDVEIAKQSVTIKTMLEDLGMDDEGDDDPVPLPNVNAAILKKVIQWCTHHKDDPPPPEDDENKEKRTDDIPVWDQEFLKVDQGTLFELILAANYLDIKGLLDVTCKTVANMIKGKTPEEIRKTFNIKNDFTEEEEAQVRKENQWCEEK

Variant	effect of a mutation on the interaction
Y145R	increasing interaction
